Reference: patent CN117736314A

Tests used:
[1] = biological target: SARS-CoV-2 Omicron(BA.2) S蛋白 (病毒颗粒上) (SARS-CoV-2); assay: cell-based or functional assay
[2] = biological target: SARS-CoV-2 Omicron BA.5 S蛋白 (病毒颗粒上) (SARS-CoV-2); assay: cell-based or functional assay

LY-CoV1404(bebtelovimab) (antibody)
IC 50 (ng/mL), live virus neutralisation, FFA on Vero cells [1]: 11.2 ng/mL
IC 50 (ng/mL), live virus neutralisation, FFA on Vero cells [2]: 7.99 ng/mL
